This note sets out measurements from the nanobody polyreactivity screen of Harvey et al. (2022).

A short description of this data set: yeast display, Sf9 membrane polyspecificity reagent, FACS + sequencing; frameworks hold sequencing errors. An outline of the steps: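 A nanobody's polyreactivity label depends on the gate it was sorted from. Yeast display cells were stained with 10% biotinylated, detergent-solubilized Sf9 membrane reagent for 1 hour at 4 °C, enriched on streptavidin microbeads and sorted by FACS. The low and high (top ~1%) gates were set on anti-HA fluorescence for expression and streptavidin fluorescence for reagent binding.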
For the sequence “QVQLVESGGGLVQAGGSLRLSCAASGFTFPGNAMGWYRQAPGKERELVAAISRSGAGTYYADSVKGRFTISRDNAKNTDYLQMNRLKPEDTAVYYCNAVYSSWDYHYRYGYWGQGTQVTVSS”, the “polyreactivity (PSR sort gate)” value is on record as “high polyreactivity”. For the sequence “QVQLVESGGGLVQAGGSLRLSCAASGFTFPHYAMGWYRQAPGKERELVAAISWSGGNTYYADSVKGRFTISRDNAKNTVYLQMNSLKPEDTAVYYCAKGYSSHYWWAYDSWGQVTQVTVSS”, the “polyreactivity (PSR sort gate)” value is “high polyreactivity”. As to “QVQLVESGGGLVQAGGSLRLSCAASGFTFPHYAMGWYRQAPGKERELVAVISWSGSSTYYADSVKGRFTISRDNAMNTVYLQMNSLKPEDTAVYYCNTRKLYQVDYDYWGQGTQVTVSS”, the “polyreactivity (PSR sort gate)” value is listed as “high polyreactivity”.

Consider “QVQLVESGGGLVQAGGSLRLSCAASGFTFPQYAMGWYRQAPGKERELFAAISKRSGGTRYADSGKGRFTISRDNSKNTVYLHMKSLKPEDTAVNYCINYGQVPGYFTLEYLGQGTQVTVSS”, for which the “polyreactivity (PSR sort gate)” value is “high polyreactivity”. For the sequence “QVQLVESGGGLVQAGGSLRLSCAASGFTFPRYAMGWYRQAPGKERELVAAISYSGGRTYYADSVKGRFTISRDNAKNTVYFQMNSLKPEDTAVYYFATEASTKRYDYWGQGTQVSVSS”, the “polyreactivity (PSR sort gate)” value is “high polyreactivity”. For “QVQLVESGGGLVQAGGSLRLSCAASGFTFPVNAMGWYRQAPGKERELVATINSGGSTNYADSVKGRFTISRDNAKNTVYLQMNSLKPEDTAVYYCAAAKRTADYASYWYVENDYWGQGTQVTVSS”, the “polyreactivity (PSR sort gate)” value is “low polyreactivity”.

Consider “QVQLVESGGGLVQAGGSLRLSCAASGFTFPVYTMGWYRQAPGKERELVAAISGSGASTYYADSVKGRFTISRDNAKNTVYLQMNSLKPEDTAVYYCAAPLWRNYYFGWMDYWGQGTQVTVSS”, for which the “polyreactivity (PSR sort gate)” value is on record as “high polyreactivity”. The same measure for “QVQLVESGGGLVQAGGSLRLSCAASGFTFPWNVMGWYRQAPGKEREFVAAISKSAGSTFYADSVKGRFTISRDNAKNTVYLQMNSLKPEDTAVYFCAKPRVPGVHVQEMYYWGQGTQVTVSS”: “low polyreactivity”; for “QVQLVESGGGLVQAGGSLRLSCAASGFTFPWYAMGSSRQAPGKERELVASISYRGDSTYYADSVKGRFTISRDNAKKTVNLQMNSLKPEDTAVYYCNKRLASYYLPGFDYWGQGTQVTVSS”: “low polyreactivity”; for “QVQLVESGGGLVQAGGSLRLSCAASGFTFPWYAMGWYRQAPGKERELVAVISSSGGSTYYADSVKGRFTISRDNAKNTVYLQMNSLKPEDTAVYYCNKDYYKRAYLFGYWGQGTQVTVSS”: “high polyreactivity”. In the case of “QVQLVESGGGLVQAGGSLRLSCAASGFTFPYNAMGWYRQAPGKERELVAAISSTGGITYYADSVKGRFTISRDNAKNTVYLQLNSLKPEDTAVYYCGWYDYWGLGTQVTVSS” it was “low polyreactivity”; in that of “QVQLVESGGGLVQAGGSLRLSCAASGFTFPYNGMGWYRQAPGKERELVASISWSGASTYYADSVKGRFTISRDNAKNTVYLQMNSLKPEDTAVYYCAADPGYYSWGSSQDDYWGQGTQVTVSS”, “low polyreactivity”. In the case of “QVQLVESGGGLVQAGGSLRLSCAASGFTFPYYAMGWYRPAPGKDRELVARISSGGSTHYADSVKGRFTISRDNAKNTVYVQMNSLKPEDTADYYCAREPWWGYHGEYDYWGQGTEVTVSS”, the “polyreactivity (PSR sort gate)” value is listed as “high polyreactivity”.

Take “QVQLVESGGGLVQAGGSLRLSCAASGFTFPYYAMGWYRPAPGKERELVAAISWIGDSTYYADSVKGRFTISRDNAKNTVYLQMNSLKPEDTAVYYCAAGYKWSIPNRDYDYWGQGTQVTVSS”: the “polyreactivity (PSR sort gate)” value was “low polyreactivity”. Regarding “QVQLVESGGGLVQAGGSLRLSCAASGFTFPYYAMGWYRQAPGKERELVATISNGGNTYYADSVKGRFTISRDNAKNTVYLQMNSLKPEDTAVYYCNAVVWAWMGYWGQGTQVTVSS”, the “polyreactivity (PSR sort gate)” value is listed as “high polyreactivity”. “QVQLVESGGGLVQAGGSLRLSCAASGFTFPYYAMGWYRQAPGTERELVASNSRSGSTNYADSVKGRFTISRDNAKNTVYLQMNSLKPEDTAVYYCAAQLYSRGGYWGHGTQVTVSS”: the “polyreactivity (PSR sort gate)” value is given as “high polyreactivity”. The same measure for “QVQLVESGGGLVQAGGSLRLSCAASGFTFQAYAMGWYRQAPGKVRELVAAINFSTGRTYYADSVKGRFTISRDNAKNTVYLQMNSLKPEDTAVYYCAADGSWTRSYDFDYWGQGTQVTVSS”: “high polyreactivity”; for “QVQLVESGGGLVQAGGSLRLSCAASGFTFQGNAKGCYIQAPGKERELVGAISYDGGSTYYADSVKGRFTISRDNAKNTVYLQMNSLKPEDTAVYYCAAYVGTWYYYWGQGTQVTVSS”: “high polyreactivity”.

As to “QVQLVESGGGLVQAGGSLRLSCAASGFTFQGNAMGWYRQAPGKERELVAAISWSGGRTYYADSVKGRFTISRDNAKNTVYCQMNSLKPEDTAVYYCAIVYKDVSGDDYWGQGTQVTVSS”, the “polyreactivity (PSR sort gate)” value is recorded as “low polyreactivity”.

“QVQLVESGGGLVQAGGSLRLSCAASGFTFQHNSMGWYRQAPGKERELVAAISLGGSTNYADSVKGRFTISRDNAKNSVYLQMNSLKPEDSAVYYCAAYDWRVLWGYDYWGQGTQVTVSS”: the “polyreactivity (PSR sort gate)” value is “low polyreactivity”.

For “QVQLVESGGGLVQAGGSLRLSCAASGFTFQINTMGWYRQAPGKERELVAAINYSGGSTYYADSVKGRFTISRDNAKNTDYLQMNSLKPEDTAVYYCATDHYRNPWRWYRYGYWGQGTQVTVSS”, the “polyreactivity (PSR sort gate)” value is reported as “low polyreactivity”.

For the sequence “QVQLVESGGGLVQAGGSLRLSCAASGFTFQKYAMGWYRQAPGKERELVAAISSSGGRTYYADSVKGRFTISRDNAKNTVYLQMNSLKPEDTAVYYCNAVPGYVYDYQYWGQGTQVTVSS”, the “polyreactivity (PSR sort gate)” value is “high polyreactivity”. In the case of “QVQLVESGGGLVQAGGSLRLSCAASGFTFQKYAMGWYRQAPGKERELVAAISSSGGRTYYADSVKGRFTISRDNAKNTVYLQMNSLKPEDTAVYYCNAVPGYVYYYQYWGQGTQVTVSS” it was “high polyreactivity”; in that of “QVQLVESGGGLVQAGGSLRLSCAASGFTFQNYVMGWYRQAPGKERELVAAINSGGRTYYADSVKGRFTISRDNAKNTVYLQMNSLKPEDTAVYYCNAVQPATYKYRSHVIEYDYWGQGSQVTVSS”, “high polyreactivity”. “QVQLVESGGGLVQAGGSLRLSCAASGFTFQYYAMGCYRQAPGKERELVAAISARDGSTYYADSVKGRFTISRDNAKNTVYLQMNSLKPEDTAVYYCAARSNYRNAYAYYYWGQGTQVTVSS”: the “polyreactivity (PSR sort gate)” value is on record as “high polyreactivity”. In the case of “QVQLVESGGGLVQAGGSLRLSCAASGFTFQYYAMGWYIQAPGKERELVATITTSGGNTYYADSVKGRFTISRDNAKNTVYLQMNSLKPEDTAVYYCAARRYRASSRGYGYWGQGTQVTVSS”, the “polyreactivity (PSR sort gate)” value was “high polyreactivity”.

Turning to “QVQLVESGGGLVQAGGSLRLSCAASGFTFQYYAMGWYRQAPGKERELVAAINWSGGRTYYADSVKGRFTISRDNAKNTVYLQMNSLKPEDTAVYYCAATRSFSGGYGYVSYDYWGQGTQVTVSS”, the “polyreactivity (PSR sort gate)” value is recorded as “high polyreactivity”. With “QVQLVESGGGLVQAGGSLRLSCAASGFTFRDNAMGWYRQAPGKERELVAAITRGGSTYYADSVKGRFTISRDNAKNTVYLQMNSLKPEDTAVYYCAKALYRREYSSGGYYRFDYWGQGTQVTVSS”, the “polyreactivity (PSR sort gate)” value is reported as “high polyreactivity”. As for “QVQLVESGGGLVQAGGSLRLSCAASGFTFRDNAMGWYRQAPGKERELVAAITWDGGSTYYADSVKGRFTISRDNAKNTVYLQMYSLKPEDTAVYYCAASRYYPRYFKRYYYWGQGTQVTVSS”, the “polyreactivity (PSR sort gate)” value is “high polyreactivity”. Turning to “QVQLVESGGGLVQAGGSLRLSCAASGFTFRDNTMGWYRQAPGKERELVASISWSGGSTYYADSVKGRFTFSRDYAKNTVYLQMNSVKPEDTAVYYCAADDGSQYYFVSPHEYDYWGQGTQVTVSS”, the “polyreactivity (PSR sort gate)” value is recorded as “low polyreactivity”. On to “QVQLVESGGGLVQAGGSLRLSCAASGFTFRDYAMGWYRQAPGKERELVATITWRVGSTFYADSVKGRFTISRDNAKNTVYLQMNSLKPEDTAVYYCADEDSNVVAYDYWGQGTQVTVSS”, for which the “polyreactivity (PSR sort gate)” value is recorded as “low polyreactivity”. With “QVQLVESGGGLVQAGGSLRLSCAASGFTFRDYVMGWYTQAPGKERELVAAISRSGASTYYADSVKGRFTISRDNAKNTVYLQMNSLKPEDTAVYYCAKTQAGYSPGTYDYWGQGTQVTVSS”, the “polyreactivity (PSR sort gate)” value was “high polyreactivity”. The same measure for “QVQLVESGGGLVQAGGSLRLSCAASGFTFRENAMGWYRQAPGKERELVAAISKRGGTTYYADSVKGRFTISRDNAKNTVYLQMNSLKPEDTAVYYCAAESYSGPYAYEYWGQGTQVTVSS”: “high polyreactivity”; for “QVQLVESGGGLVQAGGSLRLSCAASGFTFRENTMGWYRQAPGKERELVASISWSGGSTYYADSVKGRFTISRDNAKNTVYLQMNSLKPEDTAVYYCAATYAWLSKGYRGMDYWGQGTQVTVSS”: “low polyreactivity”; for “QVQLVESGGGLVQAGGSLRLSCAASGFTFRINAMGWYRQAPGKERELVAAISWSGGSTYYADSVKGRFTISRDNAKNTVYLQMNSLKPEDTAVYYCNKVQSSRYRSQRTFQYGYWGQGTQVTVSS”: “high polyreactivity”. With “QVQLVESGGGLVQAGGSLRLSCAASGFTFRIYTMGWYRQAPGKERELVAAIRWSDGTTYYADSVKGRFTISRDNAKNTVYLQMNSLKPEDTAVYYCAAYTYYYYYWGQGTQVTVSS”, the “polyreactivity (PSR sort gate)” value is reported as “high polyreactivity”.

On to “QVQLVESGGGLVQAGGSLRLSCAASGFTFRKKAMGWYRQAPGKERELVAAIRGSAGSTYYADSVKGRFTNSRDNAKITVYLQMNSLQQEDTAVYYCATGGYPSLWYGYGYWGQGTQVTVSS”, for which the “polyreactivity (PSR sort gate)” value was “low polyreactivity”. With “QVQLVESGGGLVQAGGSLRLSCAASGFTFRKNAMGWYRHAPGKERELVAVISSSGGSTSYADSVKRRFTISRDNAKNTVYLQMNSLKPEDTAVYYCAAGSSRLRALYNYWGQGSQVTVSS”, the “polyreactivity (PSR sort gate)” value is listed as “high polyreactivity”. With “QVQLVESGGGLVQAGGSLRLSCAASGFTFRKNAMGWYRQAPGKERELVAAINSSGGSTYYADSVKGRFTISRDNAKNTVYLQMKSLKQEDTAVYSCNAVGRSLARPRGDYWGQGTQVTVSS”, the “polyreactivity (PSR sort gate)” value is on record as “high polyreactivity”. Turning to “QVQLVESGGGLVQAGGSLRLSCAASGFTFRKNAMGWYRQAPGKERELVAAISRRGGRTYYADSVKGRFTISRDNAKNTVYLQMNSLKPEDSAVYYCNDDEYGGSSGRKGRYNYWGQGTQVTVSS”, the “polyreactivity (PSR sort gate)” value is “low polyreactivity”.
